# Reference: patent US20030129189A1, “Tumor necrosis factor-gamma” (priority 1994, published 2003)
# Where two headings read alike, the source gives them in different places.
# B1: FasL: Fas ligand, positive control for caspase activation in T cells (protein, UniProt P48023 130-281, looked up)
# Tumor necrosis factor ligand …: QIGHPSPPPEKKELRKVAHLTGKSNSRSMPLEWEDTYGIVLLSGVKYKKGGLVINETGLYFVYSKVYFRGQSCNNLPLSHKVYMRNSKYPQDLVMMEGKMMSYCTTGQMWARSSYLGAVFNLTSADHLYVNVSELSLVNFEESQTFFGLYKL
# B2: TR6.Fc: full length TR6 (aa 1-300) fused to the Fc domain of human IgG1 (protein)
# chain: VAETPTYPWRDAETGERLVCAQCPPGTFVQRPCRRDSPTTCGPCPPRHYTQFWNYLERCRYCNVLCGEREEEARACHATHNRACRCRTGFFAHAGFCLEHASCPPGAGVIAPGTPSQNTQCQPCPPGTFSASSSSSEQCQPHRNCTALGLALNVPGSSSHDTLCTSCTGFPLSTRVPGAEECERAVIDFVAFQDISIKRLQRLLQALEAPEGWGPTPRAGRAALQLKLRRRLTELLGAQDGALLVRLLQALRVARMPGLERSVRERFLPVH
# modifications: left off: a dimerising Fc or GST
# notes: full length TR6 (aa 1-300) fused to the Fc domain of human IgG1
# Tests used:
# DR3 = test: FACS binding of FLAG-tagged soluble TL1β to cells transfected with DR3; set-up: species or system human
# Experimental: A FLAG-tagged soluble form of the TL1 (aa 72-251) protein was tested for binding of cells transiently transfected with different members of the TNFR family, including TNFR2, LTβR, 4-1BB, CD27, CD30, BCMA, DR3, DR4, DR5, DR6, DcR1, DcR2, RANK, HveA, and AITR. […] The small shift (˜30%) seen when full length DR3 was used is likely due to the presence of low DR3-expressing cells while DR3 overexpressed cells undergone apoptosis.
# (§1) One million cells, in 0.1 ml of FACS buffer (PBS, 0.1% BSA, 0.1% NaN3), were incubated with 0.1-1 microgram of protein or antibody at RT for 15 min. The cells were washed with 3 ml of FACS buffer, reacted with biotinylated primary antibody, and stained with PE-conjugated secondary antibody at RT for 15 min. Cells were then washed again, resuspended in 0.5 microgram/ml of propidium iodide, and live cells were gated and analyzed on a FACScan using the CellQuest software (BD Biosciences).
# primary T cells = test: Caspase assay in PHA-activated primary T cells; type: cell-based, human; details: presence or absence of cycloheximide
# Experimental: Overexpression of DR3 in cell lines induces capase activation (Chinnaiyan et al., Science 274:990-2 (1996); Kitson et al., Nature 384:372-5 (1996); Marsters et al., Curr. Biol. 6:1669-76 (1996); Bodmer et al., Immunity 6:79-88 (1997)). We tested whether TL1β could induce caspase activation in primary T cells.
# TF-1 cells or PHA-activated primary T cells were seeded at 75,000 cells/well in a black 96-well plate with clear bottom (Becton Dickinson) in RPMI Medium containing 1% fetal bovine serum (Biowhittaker). […] Caspase activity was measured directly in the wells by adding equal volume of a lysis buffer containing 25 μM DEVD-rodamine 110 (Roche Molecular Biochemicals), and allowed the reaction to proceed at 37C for 1 to 2 hours. Release of rodarmine 110 was monitored with a Wallac Victor2 fluorescence plate reader with excitation filter 485 nm and emission filter 535 nm.
# TF-1/SRE-SEAP cells = test: SEAP assay: TNF-gamma-beta induced SEAP in TF-1/SRE-SEAP reporter cells; type: cell-based; details: without TNF-gamma-beta
# Experimental: (§2) Briefly, a poly-D-lysine coated 96-well plate is seeded with TF-1/SRE-SEAP cells (in RPMI+0.2% Fetal bovine serum) at 75,000 cells per well. […] Again cells were incubated overnight. After overnight incubation, conditioned media were collected and SEAP activity was determined using the SEAP Reporter Gene Assay available from Roche Molecular Biochemicals (Indianapolis, Ind.) according to the manufacturer's directions. Briefly, Conditioned media were diluted 1:4 into dilution buffer. Samples were incubated at 65C for 30 minutes to eliminate contaminating AP activity usually present in culture medium. 25 microliters of the heat-inactivated samples were mixed with equal volume of inactivation buffer (containing a mixture of differential alkaline phosphatase inhibitors). Following a 5-minute incubation at room temperature, 50 uL of alkaline phosphatase substrate (CSPD) was added to each well. Chemiluminescence signal was read 10-15 minutes later using a luminometer.
# (§3) The premyeloid cell line TF-1 was stably transfected with SRE/SEAP (Signal Response Element/Secreted Alkaline Phosphatase) reporter plasmid that responds to the SRE signal transduction pathway.
# TNF-gamma-beta [1] = biological target: T1, TNF-gamma-beta (Homo sapiens, UniProt O95150); test: Neutralization of TNF-gamma-beta induced SEAP production in TF-1/SRE reporter cells; type: cell-based; details: TNF-gamma-beta at 200 ng/mL, TF1/SRE reporter cells
# T1 construct: made in house; host or cells: 293T cells, transient transfection
# T1 sequence (O95150 72-251 limits assumed): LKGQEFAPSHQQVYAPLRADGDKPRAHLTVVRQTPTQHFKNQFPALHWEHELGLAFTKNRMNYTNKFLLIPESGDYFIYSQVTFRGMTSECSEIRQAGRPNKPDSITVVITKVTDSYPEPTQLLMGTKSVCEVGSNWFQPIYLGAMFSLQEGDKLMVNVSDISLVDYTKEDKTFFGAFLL
# Experimental: as §2
# These solutions were then incubated for 1 hour at room temperature. […] After the overnight incubation, the SEAP assay was performed as described above.
# as §3
# TNF-gamma-beta [2] = biological target: T2, TNF-gamma-beta (Homo sapiens, UniProt O95150); test: Inhibition of TNF-gamma-beta induced caspase activation in TF-1 cells; type: cell-based; details: presence of cycloheximide
# T2 construct: made in house; host or cells: E. coli (untagged) or 293T (FLAG-tagged)
# T2 sequence (O95150 72-251): T1 sequence (O95150 72-251 limits assumed)
# Experimental: Briefly, cells growing in microtiter plates are induced to undergo apoptosis, causing an activation of caspase activities. Equal volume of a caspase substrate (Asp-Glu-Val-Asp-Rhodamine 110, or DEVD-R110) solution is then added and incubated for at least 1 hour. During this incubation, cells are being lysed and free R110 is released from the substrate. The level of free R110 is determined fluorimetrically, using a fluorescence reader with excitation filter 470-500 nm and emission filter 500-560 nm.
# A black 96-well plate with a clear bottom is seeded with 75,000 TF-1 cells in RPMI containing 1% fetal bovine serum and micrograms/milliliter cyclohexamide. […] Following the manufacturer's directions, an equal volume of 1×substrate solution containing 50 micromolar DEVD-R110 diluted in incubation buffer is added to each well. The 96-well plates are then incubated for 2 hours after which the plate is read in a fluorescence reader with an excitation filter at 485 nm and an emission filter at 535 nm.
# These solutions were then incubated for 1 hour at room temperature.
# The reagents were incubated for 1 hour at RT to allow the formation of protein-TNF-gamma-beta complexes and then added to the cells. Caspase activity was measured as described above.
# TNF-gamma-beta [3] = biological target: T2, TNF-gamma-beta; test: Inhibition of TNF-gamma-beta activation of NF-κB in 293T cells; type: cell-based
# Experimental: To avoid spontaneous apoptosis or NF-κB activation accompanied with DR3 overexpression, a limited amount of DR3-expression DNA that by itself minimally activated these pathways was used.
# 293T cells were transiently transfected using LipofectAMINE and PLUS reagents according to the manufacturer's instruction (Invitrogen). For reporter assays, 293T cells, at 5×10^5 cells/well, were seeded in 6-well plates and transfected with a total of 1 microgram of DNA. pC4 DNA was used as filler DNA. Conditioned supernatant was collected 24 hr post-transfection and assayed for secreted alkaline phosphatase (SEAP) activity using the Phospha-Light™ chemiluminescent reporter gene assay system (Tropix). pCMV-lacZ was used as internal control for transfection efficiency normalization.
# TNF-gamma-beta [4] = biological target: T1, TNF-gamma-beta; test: Coimmunoprecipitation of TNF-gamma-beta by TNFR-Fc proteins; type: binding
# Source text: The beads were then precipitated and washed extensively with PBST buffer (PBS, 0.5% Triton X-100) before boiled in SDS-sample buffer. Proteins were resolved on 4-20% Tris-Glycine gels (NOVEX), transferred to nitrocellulose membranes, and blotted with anti-Flag M2 monoclonal antibody (1 microgram/ml, Sigma) andhorseradish peroxidase (HRP)-conjugated goat anti-mouse IgG antibody (0.5 microgram/ml).
# TNF-gamma-beta [5] = biological target: T3, TNF-gamma-beta (Homo sapiens, UniProt O95150); test: FACS binding of receptor-Fc proteins to cells expressing full length TNF-gamma-beta
# T3 construct: expressed in transfected cells
# T3 sequence (O95150 1-251): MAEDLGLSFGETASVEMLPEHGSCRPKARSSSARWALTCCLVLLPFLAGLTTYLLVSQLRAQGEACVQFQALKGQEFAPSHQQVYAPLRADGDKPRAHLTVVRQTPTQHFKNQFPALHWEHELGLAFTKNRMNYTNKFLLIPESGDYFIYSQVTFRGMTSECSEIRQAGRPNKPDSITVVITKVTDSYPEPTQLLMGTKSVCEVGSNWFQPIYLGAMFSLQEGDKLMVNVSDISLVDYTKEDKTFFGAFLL
# Experimental: These cells were used to screen the Fc-fusion form of the extracellular domain of TNFR family members, including TNFR1, Fas, HveA, DR3, DR4, DR5, DR6, DcR1, DcR2, TR6, OPG, RANK, AITR, TAC1, CD40, and OX40. […] TR6 has been previously described as a decoy receptor (Pitti et al., Nature 396:699-703 (1998); Yu et al., J. Biol. Chem. 274:13733-6 (1999)) capable of competing with Fas and HveA for binding of FasL and LIGHT, respectively.
# Cells resistant to 0.5 mg/ml Genticin (Invitrogen) were selected and expanded. Expression of TNF-gamma-beta mRNA was confirmed by quantitative RT-PCR analysis and surface expression of TNF-gamma-beta protein confirmed by FACS analyses using TNF-gamma-beta monoclonal antibodies.
# as §1
# TNF-gamma-beta [6] = biological target: T2, TNF-gamma-beta; test: Inhibition of TNF-gamma-beta-mediated IFNγ secretion from T cells; type: cell-based; details: costimulated T cells
# Experimental: The extent of the increase in IL-2 receptor expression is consistent with the moderate increase in IL-2 responsiveness compared with IL-2 itself.
# 1×10^5 cells/ml of purified T cells were seeded in a 24-well tissue culture plate that had been coated with anti-CD3 (0.3 microgram/ml) and anti-CD28 (5.0 microgram/ml) overnight at 4° C. […] ELISA assay for IFNγ, GM-CSF, IL-2 IL-4, IL-10 and TNFα were performed using kits purchased from R & D Systems. Recombinant human IL-2 (5 ng/ml) was used as a positive control. All samples were tested in duplicate and results were expressed as an average of duplicate samples plus or minus error.
molecule,measurement,setting,value
FLAG-TL1β: FLAG-tagged soluble form of the TL1 (aa 72-251) protein,binding to cells expressing full length or DD-deleted DR3,DR3,consisitently detected
B1,caspase activity in PHA-activated T cells,primary T cells,readily measured
B2,SEAP activity of the Fc protein by itself,TF-1/SRE-SEAP cells,showed no activity
same,neutralization of TNF-gamma-beta SEAP activity by receptor-Fc,TNF-gamma-beta [1],can be neutralized by TR6.fc fusion protein in a dose dependent manner
same,inhibition of TNF-gamma-beta induced caspase activation,TNF-gamma-beta [2],inhibited by either DR3-Fc or TR6-Fc protein
same,inhibition of TNF-gamma-beta activation of NF-κB,TNF-gamma-beta [3],able to inhibit
same,inhibition of TNF-gamma-beta activation of NF-κB,TNF-gamma-beta [3]; listed as TR6-Fc,specifically inhibited
same,immunoprecipitation of TNF-gamma-beta,TNF-gamma-beta [4],can be used to immunoprecipitate TNF-gamma-beta
same,immunoprecipitation of TNF-gamma-beta,TNF-gamma-beta [4]; listed as TR6-Fc,specifically interacted with FLAG-TNF-gamma-beta
same,binding to cells expressing TNF-gamma-beta (FACS),TNF-gamma-beta [5],specifically bind cells transfected with TNF-gamma-beta
same,binding to cells expressing TNF-gamma-beta (FACS),TNF-gamma-beta [5]; listed as TR6-Fc,bound efficiently
same,inhibition of TNF-gamma-beta-mediated IFNγ secretion,TNF-gamma-beta [6],able to inhibit
